# Experimental data taken from patent US10947289B2, “Glyco-modified atrial natriuretic peptide” (priority 2013, dated 2021).
# pEC50: −log10 of the molar value.
# Columns and labels:
# [1] = Detection of test substance in rat plasma by LC-MS/MS (Test Example 3); assay type: in vivo; settings: rat plasma, 100 nmol/kg i.v., LC-MS/MS; time at which the test substance was finally detected
# Protocol: Before the administration and 15, 30, 60, 90, 120, 180, and 240 minutes after the administration, blood was sampled (200 μL/sampling) over time from the jugular vein. The blood samples were immediately left on ice.
# The collected blood samples were centrifuged at 5000 rpm at 4° C. for 5 minutes by use of a centrifuge (Sigma 4K15, rotor: Nr12130-H). The separated plasma samples were divided into two types (samples for PK measurement and for cGMP measurement) and stored at −80° C. until measurement.
# An internal standard (20 μL (500 nM) of a stable isotope of hANP) and an acetic acid mixed solvent (AcOH/distilled water/DMSO=5/3/2, v/v/v) were added to 50 μL of each rat plasma sample prepared in (1) and then mixed therewith. The mixture was transferred to Amicon Ultra-0.5 50K (Millipore Corp., MA) and centrifuged at 14000 rpm at 15° C. for 30 minutes. The obtained filtrate was transferred to Amicon Ultra-0.5 3K (Millipore Corp., MA) and centrifuged again under the aforementioned conditions. The solution remaining on the filter was recovered and transferred to a 96-well deep well plate. The content of the test substance was measured by LC-MS/MS (LC: Shimadzu LC-10ADVP (Shimadzu Corp.), MS/MS: API 4000 QTrap (AB SCIEX)) to calculate the concentration in plasma. The time at which the test substance was finally detected is shown in the rightmost column of Table 2.
# human GC-A = target: T1, human GC-A (Homo sapiens, UniProt P16066); assay: cGMP elevating activity in CHO/human GC-A cells (Test Example 1); assay type: cell-based
# T1 construct: expressed in transfected cells; host or cells: CHO cells
# T1 sequence (P16066 33-1061): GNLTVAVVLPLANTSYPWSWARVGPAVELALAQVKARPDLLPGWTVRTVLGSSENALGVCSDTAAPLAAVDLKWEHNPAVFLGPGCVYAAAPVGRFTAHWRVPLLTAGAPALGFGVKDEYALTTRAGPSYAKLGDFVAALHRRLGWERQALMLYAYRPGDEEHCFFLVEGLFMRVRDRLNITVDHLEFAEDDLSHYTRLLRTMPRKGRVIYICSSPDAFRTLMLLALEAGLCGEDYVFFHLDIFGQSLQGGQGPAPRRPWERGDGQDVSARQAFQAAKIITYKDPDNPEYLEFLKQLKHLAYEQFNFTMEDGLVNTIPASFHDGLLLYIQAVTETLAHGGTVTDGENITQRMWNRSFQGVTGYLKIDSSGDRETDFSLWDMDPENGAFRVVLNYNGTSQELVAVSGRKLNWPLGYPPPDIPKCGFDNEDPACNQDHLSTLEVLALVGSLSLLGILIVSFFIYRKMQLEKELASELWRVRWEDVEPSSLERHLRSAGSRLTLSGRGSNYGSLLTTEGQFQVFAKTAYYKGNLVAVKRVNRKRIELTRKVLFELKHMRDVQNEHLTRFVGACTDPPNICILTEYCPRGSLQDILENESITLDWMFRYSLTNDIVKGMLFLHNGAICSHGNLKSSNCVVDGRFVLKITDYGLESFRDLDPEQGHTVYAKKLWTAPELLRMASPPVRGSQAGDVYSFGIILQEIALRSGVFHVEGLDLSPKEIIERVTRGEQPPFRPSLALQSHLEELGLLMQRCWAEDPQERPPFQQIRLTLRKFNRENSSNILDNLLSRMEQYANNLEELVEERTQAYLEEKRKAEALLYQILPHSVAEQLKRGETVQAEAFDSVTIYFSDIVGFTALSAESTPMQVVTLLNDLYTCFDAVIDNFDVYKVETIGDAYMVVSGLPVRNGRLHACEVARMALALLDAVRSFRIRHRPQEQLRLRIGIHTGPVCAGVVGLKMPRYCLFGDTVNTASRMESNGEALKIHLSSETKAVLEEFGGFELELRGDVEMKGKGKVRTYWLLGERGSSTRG
# Procedure, shortened: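 CHO cells stably expressing human GC-A, pre-incubated 10 min at room temperature in 1.6 mM IBMX/KRB, then exposed to test peptide 15 min in CO2 incubator. Lysate cGMP measured by HTRF. Activity (T/C) scaled so solvent-only = 0 and 1 nM ANP = 1.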
SMILES,Maximum time of detection after administration [1],pEC50 (human GC-A)
"CC[C@H](C)[C@@H]1NC(=O)[C@H](CCCNC(=N)N)NC(=O)[C@H](CC(=O)O)NC(=O)[C@H](CCSC)NC(=O)[C@H](CCCNC(=N)N)NC(=O)CNC(=O)CNC(=O)[C@H](Cc2ccccc2)NC(=O)[C@@H](NC(=O)[C@H](CO)NC(=O)[C@H](CO)NC(=O)[C@H](CCCNC(=N)N)NC(=O)[C@H](CCCNC(=N)N)NC(=O)[C@H](CC(C)C)NC(=O)[C@H](CO)NC(=O)CO[C@@H]2O[C@H](CO)[C@@H](O[C@@H]3O[C@H](CO)[C@@H](O[C@@H]4O[C@H](CO[C@H]5O[C@H](CO)[C@@H](O)[C@H](O)[C@@H]5O)[C@@H](O)[C@H](O[C@H]5O[C@H](CO)[C@@H](O)[C@H](O)[C@@H]5O)[C@@H]4O)[C@H](O)[C@H]3NC(C)=O)[C@H](O)[C@H]2NC(C)=O)CSSC[C@@H](C(=O)N[C@@H](CC(N)=O)C(=O)N[C@@H](CO)C(=O)N[C@@H](Cc2ccccc2)C(=O)N[C@@H](CCCNC(=N)N)C(=O)N[C@@H](Cc2ccc(O)cc2)C(=O)O)NC(=O)CNC(=O)[C@H](CC(C)C)NC(=O)CNC(=O)[C@H](CO)NC(=O)[C@H](CCC(N)=O)NC(=O)[C@H](C)NC(=O)CNC1=O [Compound 2-26, AG(5)-hANP(1-28)]",2 h,–
"CC[C@H](C)[C@@H]1NC(=O)[C@H](CCCNC(=N)N)NC(=O)[C@H](CC(=O)O)NC(=O)[C@H](CCSC)NC(=O)[C@H](CCCNC(=N)N)NC(=O)CNC(=O)CNC(=O)[C@H](Cc2ccccc2)NC(=O)[C@@H](NC(=O)[C@H](CO)NC(=O)[C@H](CO)NC(=O)[C@H](CCCNC(=N)N)NC(=O)[C@H](CCCNC(=N)N)NC(=O)[C@H](CC(C)C)NC(=O)[C@H](CO)NC(=O)CO[C@@H]2O[C@H](CO)[C@@H](O[C@@H]3O[C@H](CO)[C@@H](O[C@@H]4O[C@H](CO[C@H]5O[C@H](CO)[C@@H](O)[C@H](O)[C@@H]5O[C@@H]5O[C@H](CO)[C@@H](O[C@@H]6O[C@H](CO[C@]7(C(=O)O)C[C@H](O)[C@@H](NC(C)=O)[C@H]([C@H](O)[C@H](O)CO)O7)[C@H](O)[C@H](O)[C@H]6O)[C@H](O)[C@H]5NC(C)=O)[C@@H](O)[C@H](O[C@H]5O[C@H](CO)[C@@H](O)[C@H](O)[C@@H]5O[C@@H]5O[C@H](CO)[C@@H](O[C@@H]6O[C@H](CO[C@]7(C(=O)O)C[C@H](O)[C@@H](NC(C)=O)[C@H]([C@H](O)[C@H](O)CO)O7)[C@H](O)[C@H](O)[C@H]6O)[C@H](O)[C@H]5NC(C)=O)[C@@H]4O)[C@H](O)[C@H]3NC(C)=O)[C@H](O)[C@H]2NC(C)=O)CSSC[C@@H](C(=O)N[C@@H](CC(N)=O)C(=O)N[C@@H](CO)C(=O)N[C@@H](Cc2ccccc2)C(=O)N[C@@H](CCCNC(=N)N)C(=O)N[C@@H](Cc2ccc(O)cc2)C(=O)O)NC(=O)CNC(=O)[C@H](CC(C)C)NC(=O)CNC(=O)[C@H](CO)NC(=O)[C@H](CCC(N)=O)NC(=O)[C@H](C)NC(=O)CNC1=O [Compound 2-1, SG-hANP(1-28)]",3 h,–
"CC[C@H](C)[C@@H]1NC(=O)[C@H](CCCNC(=N)N)NC(=O)[C@H](CC(=O)O)NC(=O)[C@H](CCSC)NC(=O)[C@H](CCCNC(=N)N)NC(=O)CNC(=O)CNC(=O)[C@H](Cc2ccccc2)NC(=O)[C@@H](NC(=O)[C@H](CO)NC(=O)[C@H](CO)NC(=O)[C@H](CCCNC(=N)N)NC(=O)[C@H](CCCNC(=N)N)NC(=O)[C@H](CC(C)C)NC(=O)[C@H](CO)NC(=O)CCc2cn(CCO[C@@H]3O[C@H](CO)[C@@H](O[C@@H]4O[C@H](CO)[C@@H](O[C@@H]5O[C@H](CO[C@H]6O[C@H](CO)[C@@H](O)[C@H](O)[C@@H]6O[C@@H]6O[C@H](CO)[C@@H](O[C@@H]7O[C@H](CO[C@]8(C(=O)O)C[C@H](O)[C@@H](NC(C)=O)[C@H]([C@H](O)[C@H](O)CO)O8)[C@H](O)[C@H](O)[C@H]7O)[C@H](O)[C@H]6NC(C)=O)[C@@H](O)[C@H](O[C@H]6O[C@H](CO)[C@@H](O)[C@H](O)[C@@H]6O[C@@H]6O[C@H](CO)[C@@H](O[C@@H]7O[C@H](CO[C@]8(C(=O)O)C[C@H](O)[C@@H](NC(C)=O)[C@H]([C@H](O)[C@H](O)CO)O8)[C@H](O)[C@H](O)[C@H]7O)[C@H](O)[C@H]6NC(C)=O)[C@@H]5O)[C@H](O)[C@H]4NC(C)=O)[C@H](O)[C@H]3NC(C)=O)nn2)CSSC[C@@H](C(=O)N[C@@H](CC(N)=O)C(=O)N[C@@H](CO)C(=O)N[C@@H](Cc2ccccc2)C(=O)N[C@@H](CCCNC(=N)N)C(=O)N[C@@H](Cc2ccc(O)cc2)C(=O)O)NC(=O)CNC(=O)[C@H](CC(C)C)NC(=O)CNC(=O)[C@H](CO)NC(=O)[C@H](CCC(N)=O)NC(=O)[C@H](C)NC(=O)CNC1=O [Compound 2-12, SG-triazole-hANP(1-28)]",1.5 h,–
"CC[C@H](C)[C@@H]1NC(=O)[C@H](CCCNC(=N)N)NC(=O)[C@H](CC(=O)O)NC(=O)[C@H](CCSC)NC(=O)[C@H](CCCNC(=N)N)NC(=O)CNC(=O)CNC(=O)[C@H](Cc2ccccc2)NC(=O)[C@@H](NC(=O)[C@H](CO)NC(=O)[C@H](CO)NC(=O)[C@H](CCCNC(=N)N)NC(=O)[C@H](CCCNC(=N)N)NC(=O)[C@H](CC(C)C)NC(=O)[C@H](CO)NC(=O)CCSC2CC(=O)N(CCC(=O)NCCOCCOCCOCCOCCC(=O)N[C@@H](CCC(=O)NCCO[C@@H]3O[C@H](CO)[C@@H](O[C@@H]4O[C@H](CO)[C@@H](O[C@@H]5O[C@H](CO[C@H]6O[C@H](CO)[C@@H](O)[C@H](O)[C@@H]6O[C@@H]6O[C@H](CO)[C@@H](O[C@@H]7O[C@H](CO[C@]8(C(=O)O)C[C@H](O)[C@@H](NC(C)=O)[C@H]([C@H](O)[C@H](O)CO)O8)[C@H](O)[C@H](O)[C@H]7O)[C@H](O)[C@H]6NC(C)=O)[C@@H](O)[C@H](O[C@H]6O[C@H](CO)[C@@H](O)[C@H](O)[C@@H]6O[C@@H]6O[C@H](CO)[C@@H](O[C@@H]7O[C@H](CO[C@]8(C(=O)O)C[C@H](O)[C@@H](NC(C)=O)[C@H]([C@H](O)[C@H](O)CO)O8)[C@H](O)[C@H](O)[C@H]7O)[C@H](O)[C@H]6NC(C)=O)[C@@H]5O)[C@H](O)[C@H]4NC(C)=O)[C@H](O)[C@H]3NC(C)=O)C(=O)NCCO[C@@H]3O[C@H](CO)[C@@H](O[C@@H]4O[C@H](CO)[C@@H](O[C@@H]5O[C@H](CO[C@H]6O[C@H](CO)[C@@H](O)[C@H](O)[C@@H]6O[C@@H]6O[C@H](CO)[C@@H](O[C@@H]7O[C@H](CO[C@]8(C(=O)O)C[C@H](O)[C@@H](NC(C)=O)[C@H]([C@H](O)[C@H](O)CO)O8)[C@H](O)[C@H](O)[C@H]7O)[C@H](O)[C@H]6NC(C)=O)[C@@H](O)[C@H](O[C@H]6O[C@H](CO)[C@@H](O)[C@H](O)[C@@H]6O[C@@H]6O[C@H](CO)[C@@H](O[C@@H]7O[C@H](CO[C@]8(C(=O)O)C[C@H](O)[C@@H](NC(C)=O)[C@H]([C@H](O)[C@H](O)CO)O8)[C@H](O)[C@H](O)[C@H]7O)[C@H](O)[C@H]6NC(C)=O)[C@@H]5O)[C@H](O)[C@H]4NC(C)=O)[C@H](O)[C@H]3NC(C)=O)C2=O)CSSC[C@@H](C(=O)N[C@@H](CC(N)=O)C(=O)N[C@@H](CO)C(=O)N[C@@H](Cc2ccccc2)C(=O)N[C@@H](CCCNC(=N)N)C(=O)N[C@@H](Cc2ccc(O)cc2)C(=O)O)NC(=O)CNC(=O)[C@H](CC(C)C)NC(=O)CNC(=O)[C@H](CO)NC(=O)[C@H](CCC(N)=O)NC(=O)[C@H](C)NC(=O)CNC1=O (stereo partly shown) [Compound 2-32, SG-(SG-)Gln*-PEG(3)-Mal-hANP(1-28)]",–,9.39
